Patent publication US20250186614A1, “COMPACT DRUG RESPONSIVE DOMAINS FOR REGULATION OF FUNCTION/ABUNDANCE AND DELIVERY OF POLYPEPTIDE PAYLOADS” (OBSIDIAN THERAPEUTICS, INC., priority 2022, published 2025)
Positions count from the first letter of the chain named. Numbers in names are those of the source.

B1: FKBP-257: FKBP13 DRD-AcGFP construct of Table 10 (protein)
chain: HCPIKSRKGDVLHMHYTGKLEDGTEFDSSLPRNQPFVFSLGTGERIKGWDQGLLGMCEGEKRKLVIPSELGYGERGWPPKIPGGATLVFEVELLKIFR
modifications: Description of sequence: Construct Name: FKBP-257; Mutation(s): Q72R Q84E A117W V85R DRD E137F
B2: FKBP-256: FKBP13 DRD-AcGFP construct of Table 10 (protein)
chain: B1 chain with F97M
modifications: Description of sequence: Construct Name: FKBP-256; Mutation(s): Q72R Q84E A117W V85R DRD E137M
B3: FKBP-276: FKBP13 DRD-AcGFP construct of Table 10 (protein)
chain: B1 chain with Q34R, F97E
modifications: Description of sequence: Construct Name: FKBP-276; Mutation(s): Q72R Q74R Q84E A117W V85R
B4: FKBP-277: FKBP13 DRD-AcGFP construct of Table 10 (protein)
chain: B1 chain with Q34R, K95Y, F97E
modifications: Description of sequence: Construct Name: FKBP-277; Mutation(s): Q72R Q74R Q84E A117W V85R K135Y
B5: FKBP-279: FKBP13 DRD-AcGFP construct of Table 10 (protein)
chain: B1 chain with Q34R, K80I, F97E
modifications: Description of sequence: Construct Name: FKBP-279; Mutation(s): Q72R Q74R Q84E A117W V85R K120I
B6: FKBP-278: FKBP13 DRD-AcGFP construct of Table 10 (protein)
chain: B1 chain with Q34R, E90F, F97E
modifications: Description of sequence: Construct Name: FKBP-278; Mutation(s): Q72R Q74R Q84E A117W V85R E130F
B7: FKBP-281: FKBP13 DRD-AcGFP construct of Table 10 (protein)
chain: B1 chain with Q34R, K80I, E90F, F97E
modifications: Description of sequence: Construct Name: FKBP-281; Mutation(s): Q72R Q74R Q84E A117W V85R E130F K120I
B8: FKBP-280: FKBP13 DRD-AcGFP construct of Table 10 (protein)
chain: B1 chain with Q34R, K80I, K95Y, F97E
modifications: Description of sequence: Construct Name: FKBP-280; Mutation(s): Q72R Q74R Q84E A117W V85R K135Y K120I
B9: FKBP-282: FKBP13 DRD-AcGFP construct of Table 10 (protein)
chain: B1 chain with Q34W, F97E
modifications: Description of sequence: Construct Name: FKBP-282; Mutation(s): Q72R Q74W Q84E A117W V85R
B10: FKBP-283: FKBP13 DRD-AcGFP construct of Table 10 (protein)
chain: B1 chain with Q34W, K95Y, F97E
modifications: Description of sequence: Construct Name: FKBP-283; Mutation(s): Q72R Q74W Q84E A117W V85R K135Y
B11: FKBP-285: FKBP13 DRD-AcGFP construct of Table 10 (protein)
chain: B1 chain with Q34W, K80I, F97E
modifications: Description of sequence: Construct Name: FKBP-285; Mutation(s): Q72R Q74W Q84E A117W V85R K120I
B12: FKBP-284: FKBP13 DRD-AcGFP construct of Table 10 (protein)
chain: B1 chain with Q34W, E90F, F97E
modifications: Description of sequence: Construct Name: FKBP-284; Mutation(s): Q72R Q74W Q84E A117W V85R E130F
B13: FKBP-287: FKBP13 DRD-AcGFP construct of Table 10 (protein)
chain: B1 chain with Q34W, K80I, E90F, F97E
modifications: Description of sequence: Construct Name: FKBP-287; Mutation(s): Q72R Q74W Q84E A117W V85R E130F K120I
B14: FKBP-286: FKBP13 DRD-AcGFP construct of Table 10 (protein)
chain: B1 chain with Q34W, K80I, K95Y, F97E
modifications: Description of sequence: Construct Name: FKBP-286; Mutation(s): Q72R Q74W Q84E A117W V85R K135Y K120I
B15: FKBP-291: FKBP13 DRD-AcGFP construct of Table 10 (protein)
chain: B1 chain with E90N, F97E
modifications: Description of sequence: Construct Name: FKBP-291; Mutation(s): Q72R Q84E A117W V85R E130N
B16: FKBP-290: FKBP13 DRD-AcGFP construct of Table 10 (protein)
chain: B1 chain with K80I, E90F, F97E
modifications: Description of sequence: Construct Name: FKBP-290; Mutation(s): Q72R Q84E A117W V85R K120I E130F
B17: FKBP-289: FKBP13 DRD-AcGFP construct of Table 10 (protein)
chain: B1 chain with K80I, K95Y, F97E
modifications: Description of sequence: Construct Name: FKBP-289; Mutation(s): Q72R Q84E A117W V85R K120I K135Y
B18: FKBP-292: FKBP13 DRD-AcGFP construct of Table 10 (protein)
chain: B1 chain with K95Q, F97E
modifications: Description of sequence: Construct Name: FKBP-292; Mutation(s): Q72R Q84E A117W V85R K135Q
B19: FKBP-288: FKBP13 DRD-AcGFP construct of Table 10 (protein)
chain: B1 chain with K80I, F97E
modifications: Description of sequence: Construct Name: FKBP-288; Mutation(s): Q72R Q84E A117W V85R K120I
B20: FKBP-275: FKBP13 DRD-AcGFP construct of Table 10 (protein)
chain: B1 chain with G9D, F97E
modifications: Description of sequence: Construct Name: FKBP-275; Mutation(s): Q72R Q84E A117W V85R DRD G49D

system: Jurkat cells; experiment: Tacrolimus dose response of FKBP13-AcGFP-mCherry constructs stably transduced into Jurkat cells, GFP MFI by flow cytometry; type: cell-based; design: Basal: unit not given here; settings: FIG. 41
Method in brief: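 GFP geometric MFI was read by flow cytometry in mCherry+ cells and curve-fitted against tacrolimus dose. Cells were Jurkat E6-1, lentivirus-transduced with FKBP13-AcGFP-mCherry fusion constructs until 10-25% mCherry-positive on day 5 post-transduction.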

Question: How did the Basal turn out when B1 was run?
Answer: Its Basal is 98.

Question: What about the FC of the same molecule?
Answer: Its FC is 59.

Question: What about the Peak of the same molecule?
Answer: Its Peak is 5501.

Question: Which results are given for B2?
Answer: Basal: 111; FC: 65; Peak: 6851

same assay, conditions: FIG. 43; BR1 (Biorep 1)

Question: For B1, which Basal is on record?
Answer: Its Basal is 107.

Question: What about the FC of the same molecule?
Answer: The FC was 59.79.

Question: With B2 as the molecule, how does the Basal read?
Answer: The Basal was 110.

Question: And the FC?
Answer: Its FC is 71.46.

same assay, conditions: FIG. 43; BR1 (Biorep 1); at 10 uM

Question: Which “At 10 uM” value does the source give for B1 here?
Answer: The value was 6397.

Question: B2 was tested. Which “At 10 uM” value did it give?
Answer: Its value is 7861.

same assay, conditions: FIG. 43; BR2 (Biorep 2)

Question: With B1 as the molecule, how does the Basal read?
Answer: Its Basal is 118.

Question: And the FC?
Answer: Its FC is 50.39.

Question: For B2, which Basal is on record?
Answer: The Basal was 125.

Question: And the FC?
Answer: The FC was 59.04.

same assay, conditions: FIG. 43; BR2 (Biorep 2); at 10 uM

Question: With B1 as the molecule, how does the “At 10 uM” value read?
Answer: The value was 5946.

Question: How did the “At 10 uM” value turn out when B2 was run?
Answer: Its value is 7380.

same assay, conditions: tacrolimus; FIG. 35

Question: What does the source list for B3?
Answer: FC: 7.54; Peak: 2859

Question: What does the source list for B4?
Answer: FC: 61.04; Peak: 2581

Question: B5 was tested. Which FC did it give?
Answer: The FC was 31.33.

Question: And the Peak?
Answer: The Peak was 3302.

Question: For B6, which FC is on record?
Answer: Its FC is 92.73.

Question: And the Peak?
Answer: The Peak was 3425.

same assay, conditions: tacrolimus; FIG. 36

Question: B7 was tested. Which FC did it give?
Answer: Its FC is 77.66.

Question: What about the Peak of the same molecule?
Answer: The Peak was 2905.

Question: What does the source list for B8?
Answer: FC: 68.34; Peak: 2468

Question: With B9 as the molecule, how does the FC read?
Answer: Its FC is 39.54.

Question: What about the Peak of the same molecule?
Answer: The Peak was 2473.

Question: Which results are given for B10?
Answer: FC: 39.79; Peak: 1328

same assay, conditions: tacrolimus; FIG. 37

Question: Which results are given for B11?
Answer: FC: 36.71; Peak: 2161

Question: What does the source list for B12?
Answer: FC: 58.23; Peak: 2441

Question: Which FC does the source give for B13 here?
Answer: The FC was 47.09.

Question: What about the Peak of the same molecule?
Answer: The Peak was 1747.

Question: With B14 as the molecule, how does the FC read?
Answer: Its FC is 25.96.

Question: What about the Peak of the same molecule?
Answer: The Peak was 1089.

same assay, conditions: tacrolimus; FIG. 38

Question: B15 was tested. Which FC did it give?
Answer: The FC was 53.37.

Question: And the Peak?
Answer: Its Peak is 3859.

Question: With B16 as the molecule, how does the FC read?
Answer: Its FC is 92.89.

Question: And the Peak?
Answer: Its Peak is 3191.

Question: How did the FC turn out when B17 was run?
Answer: The FC was 73.38.

Question: What about the Peak of the same molecule?
Answer: Its Peak is 2659.

Question: How did the FC turn out when B18 was run?
Answer: The FC was 50.68.

Question: What about the Peak of the same molecule?
Answer: Its Peak is 3797.

Question: Which FC does the source give for B19 here?
Answer: Its FC is 30.10.

Question: What about the Peak of the same molecule?
Answer: Its Peak is 3718.

same assay, conditions: tacrolimus; FIGS. 29 and 30

Question: How did the FC turn out when B1 was run?
Answer: The FC was 65.

Question: For B2, which FC is on record?
Answer: Its FC is 78.

same assay, conditions: tacrolimus; FIGS. 33 and 34

Question: B20 was tested. Which FC did it give?
Answer: The FC was 56.

same assay, conditions: tacrolimus; Jurkat cells; Table 13

Question: For B20, which “Fold Change” value is on record?
Answer: The value was 56.

Question: With B11 as the molecule, how does the “Fold Change” value read?
Answer: Its value is 36.71.

Question: For B3, which “Fold Change” value is on record?
Answer: Its value is 7.54.

Question: With B15 as the molecule, how does the “Fold Change” value read?
Answer: Its value is 53.37.

Question: Which “Fold Change” value does the source give for B16 here?
Answer: The value was 92.89.

Question: How did the “Fold Change” value turn out when B1 was run?
Answer: Its value is 65.

Question: For B7, which “Fold Change” value is on record?
Answer: Its value is 77.66.

Question: Which “Fold Change” value does the source give for B8 here?
Answer: Its value is 68.34.

Question: With B12 as the molecule, how does the “Fold Change” value read?
Answer: The value was 58.23.

Question: How did the “Fold Change” value turn out when B13 was run?
Answer: Its value is 47.09.

Question: How did the “Fold Change” value turn out when B17 was run?
Answer: The value was 73.38.

Question: For B18, which “Fold Change” value is on record?
Answer: The value was 50.68.

Question: B4 was tested. Which “Fold Change” value did it give?
Answer: Its value is 61.04.

Question: How did the “Fold Change” value turn out when B9 was run?
Answer: Its value is 39.54.

Question: For B5, which “Fold Change” value is on record?
Answer: Its value is 31.33.

Question: For B2, which “Fold Change” value is on record?
Answer: Its value is 78.

Question: Which “Fold Change” value does the source give for B6 here?
Answer: The value was 92.73.

Question: With B19 as the molecule, how does the “Fold Change” value read?
Answer: The value was 30.1.

Question: Which “Fold Change” value does the source give for B10 here?
Answer: Its value is 39.79.

Question: With B14 as the molecule, how does the “Fold Change” value read?
Answer: The value was 25.96.
